Reference: patent US9745384B2, “Peptides useful for modulating histone demethylase function” (The Brigham and Women's Hospital, Inc., priority 2012, dated 2017)
Each block holds one molecule with its values, some of them ahead of it.

Columns and labels:
Type in all cases: biochemical
LSD2 [1] = target: T1, LSD2 (Homo sapiens, UniProt Q8NB78); experiment: H3K4me2 peptide demethylation assay (MALDI-TOF); conditions: H3K4me2 peptide residues 1-21
T1 construct: 0.15 μM or 1.2 μM purified LSD2 (residues 51-822); His6 (cleaved yes); made in house; host or cells: Sf9 insect cells (baculovirus)
T1 sequence (Q8NB78 51-822): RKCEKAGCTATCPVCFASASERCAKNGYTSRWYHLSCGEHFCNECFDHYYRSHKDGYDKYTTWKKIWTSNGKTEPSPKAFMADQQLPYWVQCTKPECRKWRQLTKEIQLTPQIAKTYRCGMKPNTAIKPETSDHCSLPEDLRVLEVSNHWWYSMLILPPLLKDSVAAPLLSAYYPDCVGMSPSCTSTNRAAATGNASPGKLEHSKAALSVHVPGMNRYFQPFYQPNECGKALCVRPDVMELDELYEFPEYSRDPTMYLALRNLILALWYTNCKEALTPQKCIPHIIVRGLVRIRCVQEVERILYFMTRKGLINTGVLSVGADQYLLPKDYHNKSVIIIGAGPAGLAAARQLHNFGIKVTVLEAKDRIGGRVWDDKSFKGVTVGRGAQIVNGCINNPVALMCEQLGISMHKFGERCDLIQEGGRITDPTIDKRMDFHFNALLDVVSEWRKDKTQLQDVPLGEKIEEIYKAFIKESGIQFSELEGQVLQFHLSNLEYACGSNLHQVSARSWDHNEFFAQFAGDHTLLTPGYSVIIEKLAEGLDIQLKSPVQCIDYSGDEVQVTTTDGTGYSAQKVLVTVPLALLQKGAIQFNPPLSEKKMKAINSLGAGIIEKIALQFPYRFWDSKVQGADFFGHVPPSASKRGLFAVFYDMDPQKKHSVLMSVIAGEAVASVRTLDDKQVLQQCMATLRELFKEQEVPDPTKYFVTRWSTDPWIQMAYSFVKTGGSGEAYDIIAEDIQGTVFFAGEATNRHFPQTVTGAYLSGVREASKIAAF
Protocol: FIGS. 12A-12F depict analysis of LSD2 demethylation activity and mutational analysis. […] Demethylation products were analyzed by MALDI-TOF mass spectrometry. 0.15 μM LSD2 can efficiently demethylate the longer H3K4me2 peptide (1-21), but has no detectable activity on the shorter histone peptide (1-15), demethylation of which requires high concentration (1.2 μM) of LSD2. […] It indicates the importance of histone residue 16-21 to LSD2 enzymatic activity and NPAC cofactor activity, supporting our model that NPAC assists enzyme-substrate interactions by creating a new binding site for H3 L20 in the LSD2-NPAC complex. FIG. 12C depicts LSD2 demethylation and NPAC cofactor activity on longer H3K4me2 peptide (1-44). 2 μg H3K4me2 peptide (1-44) were incubated with 0.8 μg GST-LSD2 (1-822) and 2 μg wild-type or F217A full-length GST-NPAC proteins in 100 μl demethylation buffer (50 mM Tris-HCl pH 8.1, 1 mM NAD^+, 0.1 Unit formaldehyde dehydrogenase) at 30° C. for 2 hours. LSD2 alone can efficiently demethylate di-methyl H3K4 of the long peptides, converting large majority of the substrate to H3K4me1. Wild-type NPAC protein can efficiently stimulate LSD2 demethylation, producing unmethylated H3K4. F217A mutation impairs NPAC cofactor activity as expected, showing little stimulatory effect if any. To compare demethylation efficiency, 1.2 μg bio-H3K4me2 peptide (H3 residue 1-21, equal molar ratio to 2 ug H3K4me2 1-44 peptide in above assays) was demethylated by LSD2 under identical conditions (bottom panel). […] The cofactor activity of wild-type NPAC was readily detected under the same conditions. […] Importantly, the demethylation of nucleosomal H3K4me2 was much more efficient in the presence of wild-type NPAC under same conditions (comparing lane 3 verse 4, and 8 verse 9). It is noted that no obvious cofactor effect of F217A peptide or linker regions was detected in nucleosome and peptide demethylation assays (FIG. 6E and data not shown). FIG. 12F depicts Coomassie staining of NPAC proteins used in histone demethylase assays. FIG. 12F discloses “His6” as SEQ ID NO: 75.
Histone peptides are purchased from Millipore, or custom synthesized. The purity of all peptides are >95% as determined by HPLC and mass spectrometry. In vitro histone demethylase activity assays were performed as described (Shi et al., 2004). Briefly, purified LSD2 and NPAC derived peptides or proteins were incubated with 50 μM H3K4me2 peptides (residues 1-21) in 50 mM Tris-HCl, pH 8.5, 50 mM KCl, 5 mM MgCl2, 5% glycerol at 37° C. for 30 min. The products were desalted through a C18 Ziptip (Millipore) and analyzed on a MALDI-TOF micro MX mass spectrometer (ABI 4700, Applied Biosystems). The laser intensity was kept constant for all of the samples. All MS data were processed using Data Explorer 4.5 (Applied Biosystems). […]

LSD1 = LSD1 (Homo sapiens, UniProt O60341); experiment: LSD1-mediated nucleosome demethylation assay; conditions: 2 μg LSD1 with 5 μg cofactor protein
Protocol: FIG. 7A depicts the determination of the threshold dosage of purified LSD2 required for nucleosomal H3K4 demethylation. 2 μg of nucleosomes purified from HeLa were incubated with various amount of His-LSD2 proteins for 2 hours at 30° C. The demethylation reactions were analyzed by immunoblotting using indicated antibodies. […] 2 μg LSD1 in combination with 5 μg purified NPAC or CoREST protein was used for histone demethylase assays. […] Transfected cells are marked by arrows; cells shown significant reduction of H3K4me1 are marked by dotted circles. […] In contrast, coexpression of LSD2 and NPAC induces obvious global decrease of H3K4me1. […] FIG. 7D depicts immunofluorescence analyses of H3K9me2 demethylation in cells coexpressing LSD2 and full-length NPAC.

His-LSD2 = target: T2, His-LSD2 (Homo sapiens, UniProt Q8NB78); experiment: Nucleosome demethylation assay (NPAC cofactor activity for LSD2, immunoblot)
T2 construct: typically 0.5 μg full-length His-LSD2; made in house; host or cells: Sf9 insect cells
T2 sequence (Q8NB78 1-822): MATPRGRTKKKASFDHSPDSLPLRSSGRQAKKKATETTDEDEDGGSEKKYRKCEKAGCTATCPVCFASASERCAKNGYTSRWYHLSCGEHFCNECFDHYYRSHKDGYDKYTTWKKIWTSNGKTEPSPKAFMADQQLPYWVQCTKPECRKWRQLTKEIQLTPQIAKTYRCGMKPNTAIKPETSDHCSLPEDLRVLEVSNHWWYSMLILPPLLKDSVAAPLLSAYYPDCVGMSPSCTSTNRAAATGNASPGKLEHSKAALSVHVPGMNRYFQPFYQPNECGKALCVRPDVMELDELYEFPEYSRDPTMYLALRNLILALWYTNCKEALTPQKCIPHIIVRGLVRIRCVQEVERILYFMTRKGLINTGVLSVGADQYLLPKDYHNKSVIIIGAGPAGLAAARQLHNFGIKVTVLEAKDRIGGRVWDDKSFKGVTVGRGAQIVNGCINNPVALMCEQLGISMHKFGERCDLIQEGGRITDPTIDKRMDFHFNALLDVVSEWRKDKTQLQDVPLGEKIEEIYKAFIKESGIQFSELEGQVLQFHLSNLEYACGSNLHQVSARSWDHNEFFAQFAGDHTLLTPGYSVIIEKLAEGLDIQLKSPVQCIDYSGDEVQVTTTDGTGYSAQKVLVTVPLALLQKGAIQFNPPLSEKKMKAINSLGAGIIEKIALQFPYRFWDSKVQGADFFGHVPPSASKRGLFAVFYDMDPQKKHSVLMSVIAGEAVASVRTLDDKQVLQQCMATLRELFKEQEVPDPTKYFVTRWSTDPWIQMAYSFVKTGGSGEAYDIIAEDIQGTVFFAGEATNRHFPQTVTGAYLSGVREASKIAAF
Protocol: For nucleosome demethylation assays, typically 0.5 μg full-length His-LSD2, 1 μg NPAC protein or peptides, and 2 μg nucleosomes purified from HeLa were used, and demethylation efficiency was analyzed by SDS-PAGE electrophoresis and immunoblot using methylation specific anti-histone H3 antibodies as previously described (Shi et al. 2004).

LSD2 [2] = target: T3, LSD2 (Homo sapiens, UniProt Q8NB78); experiment: H3K4me2 peptide demethylation assay (MALDI-TOF); parameters: 0.15 μM or 1.2 μM purified LSD2 (residues 51-822); His6 (cleaved yes); made in house; host or cells: Sf9 insect cells (baculovirus); conditions: longer H3K4me2 peptide residues 1-44
T3 sequence (Q8NB78 1-822): T2 sequence (Q8NB78 1-822)
Protocol: FIGS. 12A-12F depict analysis of LSD2 demethylation activity and mutational analysis. […] Demethylation products were analyzed by MALDI-TOF mass spectrometry. 0.15 μM LSD2 can efficiently demethylate the longer H3K4me2 peptide (1-21), but has no detectable activity on the shorter histone peptide (1-15), demethylation of which requires high concentration (1.2 μM) of LSD2. […] It indicates the importance of histone residue 16-21 to LSD2 enzymatic activity and NPAC cofactor activity, supporting our model that NPAC assists enzyme-substrate interactions by creating a new binding site for H3 L20 in the LSD2-NPAC complex. FIG. 12C depicts LSD2 demethylation and NPAC cofactor activity on longer H3K4me2 peptide (1-44). […] The cofactor activity of wild-type NPAC was readily detected under the same conditions. […] It is noted that no obvious cofactor effect of F217A peptide or linker regions was detected in nucleosome and peptide demethylation assays (FIG. 6E and data not shown). […]
Histone peptides are purchased from Millipore, or custom synthesized. The purity of all peptides are >95% as determined by HPLC and mass spectrometry. […] The products were desalted through a C18 Ziptip (Millipore) and analyzed on a MALDI-TOF micro MX mass spectrometer (ABI 4700, Applied Biosystems). […]

Cofactor activity: stimulation of LSD2 demethylation of H3K4me2 peptide (LSD2 [1]): strong cofactor activity for LSD2
B1: linker region of NPAC: NPAC linker region, residues 152-252 or 152-268 (protein)
chain: SERGSKSPLKRAQEQSPRKRGRPPKDEKDLTIPESSTVKGMMAGPMAAFKWQPTASEPVKDADPHFHHFLLSQTEKPAVCYQAITKKLKICEEETGSTSIQ
modifications: left off: a dimerising Fc or GST
Stimulation of LSD1 nucleosome demethylation (LSD1): failed to stimulate LSD1 demethylation of nucleosomes

Cofactor activity on nucleosomes when more NPAC and LSD2 proteins were used (His-LSD2; more NPAC and LSD2 than threshold assay (FIG. 12E)): residual stimulatory activity
Cofactor activity: stimulation of LSD2 demethylation of nucleosomal H3K4me2 (His-LSD2; threshold dosage of His-LSD2, nucleosomes purified from HeLa): didn't detect cofactor activity
Cofactor activity: stimulation of LSD2 demethylation of H3K4me2 peptide (LSD2 [2]): very weak or undetectable
B2: full-length NPAC F217A protein: full-length NPAC protein with F217A mutation (protein, UniProt Q49A26 1-553, looked up, variant F217A)
chain: MAAVSLRLGDLVWGKLGRYPPWPGKIVNPPKDLKKPRGKKCFFVKFFGTEDHAWIKVEQLKPYHAHKEEMIKINKGKRFQQAVDAVEEFLRRAKGKDQTSSHNSSDDKNRRNSSEERSRPNSGDEKRKLSLSEGKVKKNMGEGKKRVSSGSSERGSKSPLKRAQEQSPRKRGRPPKDEKDLTIPESSTVKGMMAGPMAAFKWQPTASEPVKDADPHAHHFLLSQTEKPAVCYQAITKKLKICEEETGSTSIQAADSTAVNGSITPTDKKIGFLGLGLMGSGIVSNLLKMGHTVTVWNRTAEKCDLFIQEGARLGRTPAEVVSTCDITFACVSDPKAAKDLVLGPSGVLQGIRPGKCYVDMSTVDADTVTELAQVIVSRGGRFLEAPVSGNQQLSNDGMLVILAAGDRGLYEDCSSCFQAMGKTSFFLGEVGNAAKMMLIVNMVQGSFMATIAEGLTLAQVTGQSQQTLLDILNQGQLASIFLDQKCQNILQGNFKPDFYLKYIQKDLRLAIALGDAVNHPTPMAAAANEVYKRAKALDQSDNDMSAVYRAYIH
modifications: full-length
notes: full-length NPAC protein with F217A mutation
